B1: LMNB1 (parent)
chain: LYKEELEQTYHAKLENARLSSEMN

Variants of: B1
Test: protein stability index of a GFP-peptide fusion (GPS, HEK-293T) (PSI 1-6); higher = more stable
Details: c terminus: a fixed tail appended
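Note: lentivirally expressed fusions sorted by FACS into six bins by GFP to DsRed ratio, PSI derived from sequencing read proportions per bin multiplied by bin number.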

In order of rising protein stability index:
1. LYKEWLEQTYHAKLENARLSSEMN [E5W]  1.37
2. LYKEQLEQTYHAKLENARLSSEMN [E5Q]  1.54
3. LYWEELEQTYHAKLENARLSSEMN [K3W]  1.61
4. LYKEELEWTYHAKLENARLSSEMN [Q8W]  1.71
5. LYFEELEQTYHAKLENARLSSEMN [K3F]  1.77
6. LYKEELEQTYHAKLENARWSSEMN [L19W]  1.8
7. LYKETLEQTYHAKLENARLSSEMN [E5T]  1.83
8. LYKEELEQTYHAYLENARLSSEMN [K13Y]  1.84
9. LYAEELEQTYHAKLENARLSSEMN [K3A]  1.94
10. LYKEELEFTYHAKLENARLSSEMN [Q8F]  2.09
11. LIKEELEQTYHAKLENARLSSEMN [Y2I]  2.09
12. LYKEELCQTYHAKLENARLSSEMN [E7C]  2.11
13. LYKEELEQLYHAKLENARLSSEMN [T9L]  2.16
14. LYKLELEQTYHAKLENARLSSEMN [E4L]  2.17
15. LYKEELEATYHAKLENARLSSEMN [Q8A]  2.19
16. WYKEELEQTYHAKLENARLSSEMN [L1W]  2.21
17. LYKEELEQTYHAFLENARLSSEMN [K13F]  2.25
18. FYKEELEQTYHAKLENARLSSEMN [L1F]  2.27
19. LYKEALEQTYHAKLENARLSSEMN [E5A]  2.28
20. LYKEELEQTYHAKLSNARLSSEMN [E15S]  2.33
21. LYYEELEQTYHAKLENARLSSEMN [K3Y]  2.34
22. LYKEELEQTYHAKLENARLSSTMN [E22T]  2.35
23. LYKEELEQTYHAKLEIARLSSEMN [N16I]  2.35
24. LYKEELEQTYHAKLENARYSSEMN [L19Y]  2.36
25. LYKEELYQTYHAKLENARLSSEMN [E7Y]  2.38
26. LYKEELEQTYKAKLENARLSSEMN [H11K]  2.4
27. LYKEMLEQTYHAKLENARLSSEMN [E5M]  2.42
28. LYKKELEQTYHAKLENARLSSEMN [E4K]  2.46
29. LYKEGLEQTYHAKLENARLSSEMN [E5G]  2.46
30. LYKEELEQTYHAKLENARLSGEMN [S21G]  2.51
31. LYKRELEQTYHAKLENARLSSEMN [E4R]  2.51
32. LYKEELHQTYHAKLENARLSSEMN [E7H]  2.53
33. LYKEELEQTYHAKLENTRLSSEMN [A17T]  2.61
34. LYKEELEQTYHAKLENARLSSKMN [E22K]  2.61
35. LYKEELEQVYHAKLENARLSSEMN [T9V]  2.61
36. LYCEELEQTYHAKLENARLSSEMN [K3C]  2.64
37. LYKEELEQTYHAKLGNARLSSEMN [E15G]  2.65
38. LYKDELEQTYHAKLENARLSSEMN [E4D]  2.69
39. LYKEELEQTYHAKLENARLSMEMN [S21M]  2.72
40. LYKEELEQTYHAKLENARLSSIMN [E22I]  2.74
41. LYKEELERTYHAKLENARLSSEMN [Q8R]  2.81
42. LYKEELIQTYHAKLENARLSSEMN [E7I]  2.84
43. LYKEELEQTYHAKLENARLSSRMN [E22R]  2.88
44. LYKEELEQTYHAKLENARVSSEMN [L19V]  2.88
45. LAKEELEQTYHAKLENARLSSEMN [Y2A]  2.91
46. LYHEELEQTYHAKLENARLSSEMN [K3H]  2.91
47. LYKEELEQTYHAKLERARLSSEMN [N16R]  2.92
48. LYKSELEQTYHAKLENARLSSEMN [E4S]  2.94
49. LYKEELEQTYHAKLEAARLSSEMN [N16A]  2.98
50. LYPEELEQTYHAKLENARLSSEMN [K3P]  3.09
51. LYKEPLEQTYHAKLENARLSSEMN [E5P]  3.1
52. LYKEELEQCYHAKLENARLSSEMN [T9C]  3.12
53. LYKEELEQTYHAKLENAQLSSEMN [R18Q]  3.14
54. LYKEELEQTYHAKLENARMSSEMN [L19M]  3.15
55. LYKEELLQTYHAKLENARLSSEMN [E7L]  3.17
56. LYKNELEQTYHAKLENARLSSEMN [E4N]  3.27
57. LYNEELEQTYHAKLENARLSSEMN [K3N]  3.29
58. LYKEELEQTYHAKLENARLSSNMN [E22N]  3.3
59. LYKEELEQTYHAKLPNARLSSEMN [E15P]  3.31
60. LYKEELEQTYHAKLENAGLSSEMN [R18G]  3.35
61. LYKEELEQTYHAKLENARLSSSMN [E22S]  3.44
62. LYKEELEDTYHAKLENARLSSEMN [Q8D]  3.46
63. LYKEELEQTYHAKLENARLSDEMN [S21D]  3.48
64. LYDEELEQTYHAKLENARLSSEMN [K3D]  3.56
65. LYKEELEQAYHAKLENARLSSEMN [T9A]  3.59
66. QYKEELEQTYHAKLENARLSSEMN [L1Q]  3.6
67. LYKEELEQTYHAKLENSRLSSEMN [A17S]  3.61
68. LYKEELEQRYHAKLENARLSSEMN [T9R]  3.64
69. LYKEELEQTFHAKLENARLSSEMN [Y10F]  3.67
70. LYKEELEQTYHPKLENARLSSEMN [A12P]  3.73
71. LYKEELEQTYHAKLENARRSSEMN [L19R]  3.79
72. LYKEELEQTYAAKLENARLSSEMN [H11A]  3.81
73. LYKEELEQTYHAKLEEARLSSEMN [N16E]  4
74. LYKEEMEQTYHAKLENARLSSEMN [L6M]  4.03
75. LYKEELEQTYHTKLENARLSSEMN [A12T]  4.08
76. LQKEELEQTYHAKLENARLSSEMN [Y2Q]  4.21
77. LYKEELEQTLHAKLENARLSSEMN [Y10L]  4.23
78. LYKEELEQTYHAKLENARDSSEMN [L19D]  4.25
79. LYKEELEQTYHAPLENARLSSEMN [K13P]  4.37
80. LYKEEREQTYHAKLENARLSSEMN [L6R]  4.38
81. LYKEEPEQTYHAKLENARLSSEMN [L6P]  4.39
82. LYKEEKEQTYHAKLENARLSSEMN [L6K]  4.4
83. LYKEEYEQTYHAKLENARLSSEMN [L6Y]  4.48
84. LYKEELEQTGHAKLENARLSSEMN [Y10G]  4.52
85. LYKEELEQTYHAKQENARLSSEMN [L14Q]  4.56
86. LYKEENEQTYHAKLENARLSSEMN [L6N]  4.57
87. LYKEELEQTYHDKLENARLSSEMN [A12D]  4.61
88. LYKEELEQTYHAKEENARLSSEMN [L14E]  4.64
89. LYKEESEQTYHAKLENARLSSEMN [L6S]  4.7
90. LYKEELEQTYEAKLENARLSSEMN [H11E]  4.71
91. LYKEETEQTYHAKLENARLSSEMN [L6T]  4.75
92. LYKEELEQTYHAKRENARLSSEMN [L14R]  4.78
93. LYKEELEQTEHAKLENARLSSEMN [Y10E]  5.55
94. LYKEELEQTYHAKKENARLSSEMN [L14K]  5.64
